Measurements: the supplement of paper PMC10201428
± gives the standard deviation of the averaged measurements.

Tests used:
[1] = tested on: VchCAST RNA-guided transposition machinery (E. coli BL21(DE3) host, lacZ target); assay: relative integration efficiency (T-LR orientation) vs wild-type transposon end (log2 (normalized fold change)); transposon end mutated: left end; higher = more efficient transposition
How it was run: (§1)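 Co-transformation of E. coli BL21(DE3) combined a pUC57 mini-transposon donor, holding barcoded pools of 1549 left-end or 1849 right-end variants, with a T7-driven plasmid encoding a CRISPR array, tniQ-cas8-cas7-cas6 and tnsA-tnsB-tnsC. After plating with 0.1 mM IPTG at 37°C for 18 h, input plasmids and genomic integration junctions were PCR-amplified and Illumina-sequenced across two biological output replicates, with four reference barcodes. Relative integration efficiency is the normalised, log-transformed output/input barcode fold change.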

[2] = tested on: VchCAST RNA-guided transposition machinery (E. coli BL21(DE3) host, lacZ target); assay: relative integration efficiency (T-RL orientation) vs wild-type transposon end (log2 (normalized fold change)); transposon end mutated: left end; higher = more efficient transposition
How it was run: as §1

Row | Sequence | relative integration efficiency (log2) [1] | relative integration efficiency (log2) [2]
1 | AATGTTGTTGATGCAACCATAAAATGATAATTAATAATTATTTATAATCAGCAACTTAACCACAAAACAACCATAAAGTGATATTTAACAAAAGTTGGTATTCAACTATAAAATGTGAATCGAGTATTTCAGCAAAACTACTGCAGTAAGAA | -0.635 ± 1 | -2.33 ± 0.95
2 | AATGTTGTTGATGCAACCATAAAGTGATATTTAATACAACCATAAAGTGATATTTAACTTAACCACACAACCATATATTGATATCTCACAAAACAACCATAAGTTGATATTTTTGTGAATCGAGTATTTCAGCAAAACTACTGCAGTAAGAA | -3.38 ± 1.9 | -5.26 ± 0.97
3 | TTTTGTGTTGAAACAACCATAAAGTGATAACAACGAATCAATTAAAATCATAGGCTTAATCGAAAAACAACCATATCTTGATATCGCACAAAACAACCATAAGTTGATATTTTGGTGAAAAGGATATTCCAACCTTCATAGTTTAGTAAGAA | -0.749 ± 0.52 | -0.684 ± 0.39
4 | AATGTTGTTGATGCAACCATAAAGTGATATTTAATAATTATTTATACGACTACCAGGCCAACACCCCACCAACGCGCGGTCGCGAGACACCCCACCAACGCCTGGTCGCGGGGGTGTCCGATCTGATTTCAGCAAAACTACTGCAGTAAGAA | -4.47 ± 0.46 | -6.45 ± 1.3
5 | AATGTTGTTGATGCAACCATAAAGTGATATTTAATAATTATTTATAATCAGCAACTTAACCACAAAACAACCATATATTGATATCTCACACCCACCAACGCCTGGTCGCGGGGGTGTCCGATCTGATTTCAGCAAAACTACTGCAGTAAGAA | -1.23 ± 1.7 | -2.48 ± 0.87
6 | AATGTTGTTGATGCAACCATAAAGTGATATTTAATAATTATTTATAATCAGCAACTTAACCACAAAACAACCATATATTGATAGAGACACCCCACCAACGCCTGGTCGCGGGGGTGTCCGATCTGATTTCAGCAAAACTACTGCAGTAAGAA | -1.28 ± 2 | -3.06 ± 1.2
7 | AATGTTGTTGATGTAATTATCATTTTATGGTTGATAATTATTTATAATCAGCAACTTAACCACAAAACAACCATAAAATGATAATTATTTTGTCAACCATAAAATGATAATTATGTGAATCGAGTATTTCAGCAAAACTACTGCAGTAAGAA | < -10 | -8.78 ± 0.35
8 | AATGTTGTTGATGCAACCATAAAGTGATATTTACAACCATATATTGATATCTCATAATTATTTATAATCAGCAACTTAACCACAAAAACAAAACAACCATAAGTTGATATTTTTGTGAATCGAGTATTTCAGCAAAACTACTGCAGTAAGAA | -0.75 ± 1.4 | -1.85 ± 0.76
9 | AATGTTGTTGATGCAACCATAAAGTGATATTTAATAACTTGGTATAGCATACATTATACGAACGGTACAACCATATATTGATATCTCACAAAACAACCATAAGTTGATATTTTTGTGAATCGAGTATTTCAGCAAAACTACTGCAGTAAGAA | -4.2 ± 0.86 | -3.71 ± 1.4
10 | AATGTTGTTGATGCAACCATCCCTGTCGCGGGCCGCCGGCGGGCGCCGACTACCAGGCCAACACCCCACCAACGCGCGGTCGCGAGACACCCCACCAACGCCTGGTCGCGGGGGTGTCCGATCTGATTTCAGCAAAACTACTGCAGTAAGAA | -9.26 ± 0.31 | < -10
11 | AATGTTGTTGATGCAACCATAAAGTGATATTTAATAACTTCGTATAATGTATGCTATACGAAGTTATCAACCATATATTGATATCTCACAAAACAACCATAAGTTGATATTTTTGTGAATCGAGTATTTCAGCAAAACTACTGCAGTAAGAA | -3.76 ± 2.9 | -2.95 ± 1.1
12 | AATGTTGTTGATGCAACCATAAAGTGATATTTAATAATTATTTATAATCAGCAACTTAACCACACCCACCAACGCGCGGTCGCGAGACACCCCACCAACGCCTGGTCGCGGGGGTGTCCGATCTGATTTCAGCAAAACTACTGCAGTAAGAA | -3.59 ± 0.93 | -6.25 ± 1.4
13 | AATGTTGTTGATGTAATTATCATTTTATGGTTGATAATTATTTATAATCAGCAACTTAACCACAAAACAACCATAAAATGATAATTAACAAAATAATTATCATTTTATGGTTGTGTGAATCGAGTATTTCAGCAAAACTACTGCAGTAAGAA | < -10 | -7.72 ± 0.59
14 | AATGTTGTTGATGTGTTCAACCATAAAGTGATATTTAATAATTATTTATAATCAGCAACTTAACCACAAAACAACCATATATTGATATCTCACAAAACAACCATAAGTTGATATTTTTGTGAATCGAGTATTTCAGCAAAACTACTGCAGTA | < -10 | -6.33 ± 0.89
15 | AATGTTGTTGATGCAACCATAAAATGATAATTAATAATTATTTATAATCAGCAACTTAACCACAAAACACCCATAAATTGATAATTAACAAAAGTTGGTATTCAACTATAAAATGTGAATCGAGTATTTCAGCAAAACTACTGCAGTAAGAA | -0.121 ± 0.44 | -2.02 ± 1.1
16 | AATGTTGTTGATGCAACCATAAAATGATAATTAATAATTATTTATAATCAGCAACTTAACCACAAAATAATTATCATTTTATGGTTGACAAAATAATTATCATTTTATGGTTGTGTGAATCGAGTATTTCAGCAAAACTACTGCAGTAAGAA | -0.969 ± 0.98 | -6.03 ± 2.2

Row | Sequence | relative integration efficiency (log2) [1] | relative integration efficiency (log2) [2]
17 | AATGTTGTTGATGCAACCATAAAGTGATATTTAATAATTATTTATAATACTACCAGGCCAACACCCCACCAACGCGCGGTCGCGAGACACCCCACCAACGCCTGGTCGCGGGGGTGTCCGATCTGATTTCAGCAAAACTACTGCAGTAAGAA | -3.51 ± 1.3 | -6.5 ± 1.2
18 | AATGTTGTTGATGCACCCATAAATTGATATTGCATAATTATTTATAATCAGCAACTTAACCACAAAACAACCATAAAGTGATATTTAACAAAAGTTGGTATTCAACTATAAAATGTGAATCGAGTATTTCAGCAAAACTACTGCAGTAAGAA | -1.73 ± 0.93 | -3.26 ± 1
19 | AATGTTGTTGATGCAACCATAAAGTGATATTTAATAATTATTTATAATCAGCAACTTAACCACAAAACAACCATCGCGGTCGCGAGACACCCCACCAACGCCTGGTCGCGGGGGTGTCCGATCTGATTTCAGCAAAACTACTGCAGTAAGAA | -3.94 ± 2.1 | -7.35 ± 1.8
20 | AATGTTGTTGATGCAACCATAAAGTGATATTTAATAATTAGGGCGCCGACTACCAGGCCAACACCCCACCAACGCGCGGTCGCGAGACACCCCACCAACGCCTGGTCGCGGGGGTGTCCGATCTGATTTCAGCAAAACTACTGCAGTAAGAA | -4.57 ± 0.92 | -7.07 ± 0.66
21 | AATGTTGTTGATGCAACCATAAAGTGATATTTAATAATTATTTATAATCAGCAACTTAACCACAAAATGTGAATCGACAACCATATATTGATATCTCACAAAACAACCATAAGTTGATATTTTGTATTTCAGCAAAACTACTGCAGTAAGAA | -3.12 ± 0.12 | -2.45 ± 0.87
22 | AATGTTGTTGATGCAACCATAAAGTGATATTTACTAGGATTCATGTCAACGTGCAAGCTTAGTTCGACAACCATATATTGATATCTCACAAAACAACCATAAGTTGATATTTTTGTGAATCGAGTATTTCAGCAAAACTACTGCAGTAAGAA | -5.46 ± 2.5 | -5.16 ± 1
23 | AATGTTGTTGATGCAACCATAAAGTGATATTTAATACAACCATATATTGATATCTCACAAAACAACCATAAGTTGATATTTTTGTGAATCGAGTATTTCAGCAAAACTACTGCAGTAAGAAAGTTACTTCGTGGTATGGGAGGATCAAGGAG | -2.15 ± 1.6 | -4.83 ± 1.7
24 | AATGTTGTTGATGTCAACCATAAAGTGATATTTAATAATTATTTATAATCAGCAACTTAACCACAAAACAACCATATATTGATATCTCACAAAACAACCATAAGTTGATATTTTTGTGAATCGAGTATTTCAGCAAAACTACTGCAGTAAGA | -0.718 ± 0.039 | -0.694 ± 0.2
25 | AATGTTGTTGATGCAACCATAAAGTGATATTTAATCAACCATATATTGATATCTCAATTATTTATAATCAGCAACTTAACCACAAAAACAAAACAACCATAAGTTGATATTTTTGTGAATCGAGTATTTCAGCAAAACTACTGCAGTAAGAA | -0.334 ± 1.6 | -2.99 ± 0.87
26 | AATGTTGTTGATGCAACCATAAAGTGATATTTAATAACTTCGTATAATGTATACTATACGAAGTTATCAACCATATATTGATATCTCACAAAACAACCATAAGTTGATATTTTTGTGAATCGAGTATTTCAGCAAAACTACTGCAGTAAGAA | -2.57 ± 2.1 | -3.05 ± 1.2
27 | AATGTTGTTGATGCAACCATAAAGTGATATTTAATAATTATTTATAATCAGCAACTTAACCACAAAACAACCATATATTGATACAAAACAACCATAAGTTGATATTTTTGTGAATCGAGTATTTCAGCAAAACTACTGCAGTAAGAAAGTTA | -2.08 ± 1.7 | -4.34 ± 0.99
28 | AATGTTGTTGATGCAACCATAAAGTGATATTTAATAATTATTTATAATCAGCAACTTAACCACAAAACAACCATATATTGATATCTCACAAAACAACCATAAGTTGATATTTTGTGAATCGAGTATTTCAGCAAAACTACTGCAGTAAGAAA | 0.169 ± 0.12 | 0.0855 ± 0.0046
29 | AATGTTGTTGATGCACCCATAAATTGATATTGCATAATTATTTATAATCAGCAACTTAACCACAAAACAACCATAAAATGATAATTAACAAAAGTTGGTATTCAACTATAAAATGTGAATCGAGTATTTCAGCAAAACTACTGCAGTAAGAA | -1.26 ± 0.57 | -3.11 ± 1.5
30 | AATGTTGTTGATGCAACCATAAAGTGATATTTAATAATTATTTCGCCGACTACCAGGCCAACACCCCACCAACGCGCGGTCGCGAGACACCCCACCAACGCCTGGTCGCGGGGGTGTCCGATCTGATTTCAGCAAAACTACTGCAGTAAGAA | -6.08 ± 3.8 | -7.27 ± 1.6
31 | AATGTTGTTGATGCAACCATAAAGTGATATTTACCGACTGCCTGCCATCCGCCGCCGCACCGCAGCCCAACCATATATTGATATCTCACAAAACAACCATAAGTTGATATTTTTGTGAATCGAGTATTTCAGCAAAACTACTGCAGTAAGAA | -3.03 ± 1.2 | -2.99 ± 0.89
